The target in the test is CC1-CC2-SUN fragment of mouse SUN2 (SUN2 residues 410-731), wild type (mouse). The experiment in a line: SEC. Background: SEC sorts molecules by how far they enter the pores of the column.

Take “CC1-CC2-SUN fragment of mouse SUN2 (SUN2 residues 410-731), wild type (domain or fragment)”: the stoichiometry N was 3.

As a reminder, the stoichiometry N is a count of units in the complex or per binding partner.

The values are drawn from publication PMC6232973.
